Assay: soluble on expression in E. coli; label from the status in PepcDB or PDB records

Sequence | soluble on expression in E. coli
MSLAAKVVPTLQQLAWQQMELTAFLHFGINTFTDSEWGDGKEDPALFNPVELDARQWVRILHEAGFRMVILTAKHHDGFCLWPTATTRHSVASSPWREGKGDVVKEVRAACEEYGMKFGIYLSPWDRNAECYGDSHRYNRFFVSQLTELLTHYGEVHEVWFDGANGEGPNGKRQEYDWETFYDTIRRLQPQAVMAIMGDDVRWVGNERGLGRTTEWSATVLTPGIYSRSKTERNRLGIRENSPDLGSREVLKEAGEIFWYPSEVDVSIRPGWFYHAAEDKKVKSLDKLVDIYFQSVGYNSVLLLNVPPDRRGLIHEADALRLKEWADYLGRAFAHDRVVDSARYAVVQGHAVEEYALESKTHINILMLQEDITKGQRTEAFTVEAWVDGAWQEIGRGTTIGYKRLLRIPAVETDRIRVRIEQCRLPVNLCRVAVYYAEGHHHHHH | soluble
GSSPNLRYPIADVSGGIGMSPNYRFRQSMWIGIVSYSGSGLNWRVQVNSDIFIVNDYIHICLPAFDGFSIADGGDLSLNFVTGLLPPLLTGDTEPAFHNDVVTYGAQTVAIGLSSGGTPQYMSKNLWVEQWQDGVLRLRVEGGGSITHSNSKWPAMTVSYPRSFT | soluble
MAEPKKLANGKWQLRFKYKDSITNEWKNKMITRSTKKACRDAETEFKSKIMRGENTEAIKLLDFYDIWVDTFKKNKVSAGRMQKIALTRKNLHDFFGDKQLLKGVTKVKYQQWINWLAKPGNINEKGLAVETVSNRHNIVKSMFLEALDMQYIHSNPTRNIKLTGQVPEKKSNKTISIDDLTKFKEALLSRENTTSKYFILVQLYTGARYQEVAALTWDSIDESNEVIKIKNAYKYDAGQYRIGPTKSEAGVRNIDVPSSLFYYLKKYEMEQKKKILRGDLRNPQNFAFVSKKNSWPISNSSVNKYIKETCELANIERISSHSFRHARSDLLILAEADPIYIKTQLGHKEIIQSYEYASATEANRKKNKEKYENKYKDIL | not soluble
MAHHHHHHMGYMQEREEMSAMVDQRTAQLEALTSSVAEAQKKLQALDERMMALEPHGNVQATAPAGATATTSKRARAGASSVGGAWDAAGVASATKMPPEELKKKVEESIEHIFHLLRTGDQQLKLTAQNPNLRKSVDGAKVAGNASHGRSRAASLHRGPKALQSSTMQTGKMKAATGGSSYDSQRPSSGAHRSGKSTVGATTAAGAADAASQQQHHDASMGPVEMLTIIENKLEEYHRYLSDPANHVELALMKAVMKQSDKQRRRQARIIHLANQEDEQEERIRRALERSQAPIIHKIGKPFRPRSFVSKPIDEKSRRKAERAAAALNGSLDNIDSDEDGAEFFM | soluble
MGCKISTEFCSDNPVGSISTSKVHPTDLSTPSYAIKPVEFYEEPLKDDQLFYKVALAKKEYREKEKDKKEQLSSNRRVSLQVEPNKLPIPLTRSSSLSSIMENRPPSGISNSSFIRSRNTASRRFTIDTSRAKSNQYVVSLCSKKIGIIEYPDGRSDKQPCDVYWHNVVLSDMNKIVTSPQSRVNKFPGMTELAKKISLTHSISSMQKLFPDEYAFYPNSWFLPAHLADFHAFYRKAQALGKTEMWFIVKPDEGAQGTGIYLINSPNQIRNVDQRQLVQEYVADPLLMNDKLKFDFRVYGVIKSINPLSIYVAREGMARFCTEKYEKPDSSNFKNLYAHLTNYSLNKANEAYVHSNTLQDQTRGSKRLLSTVFHQLESRGVKTKRLWHDIKLILVKTTLAMLPEIMLHYEHHFYDSTGPQCFQIMGFDVMIREDGTPILLEVNAAPSLTADHIVPHPGRTLLEGGQRVRSIVDEVIKIPLVRDTLLLVLGLMEEEYQNNSLKGETKSLDDMQTIKQRRKPHLSEIFPTRYGAHSGHLLFLDKAMYIYMQFVQLRSNVNITNAGLKQFVRKCNLIDIIPVVHVDAKVSEINYYFTGEKRTNGNGLPFHAFLMFLFFIAEKKFVLENDLLSKVQRLLSFCDMSLRRYGVRSARLRRAEVDSTIGNVEIYMLPSRMARNRSGTNGRKQNFTDDNNNPNSFAHLPKINERL | not soluble
MSLSNTGINCPFDCGLCPRHRSHTSLINIVLTNRCNLSCWYCFFYAREGEPIYEPTLEQIRMMLRNAKKEHPIGANAVQFTGGEPTLRDDLIEIIKIAKEEGYDHIQLNTDGIKLAFDPELVKKLREAGVNTLYLSYDGMTPQTNWKNHWEIPLIFENVRKAGGPGIVLVPTLIRNINDHEAGAIINFGLNHLDIVRGVNFQPISLVGRVPRKERQRFRITIAGAIKKIEEQTNGVIAKEDWYPIPIAGHIARFFEAFTGRKYYMTSHFACGAATYVFLDREEKKVIPIPRFIDVDGFVEFLVEKAEEIEKARFKSLAKLKAIGETIFVKFKQFYDEKNAPKGLDVLGLIKNAFVHGTYDALGKFHMNTLFIGMMHFMDEYNYDVERVERCVIHYAMPDGRIVPFCTFNVIPEIYRDKVQRQFSYSWEEWKKLHPDEGHHHHHH | not soluble
MSDTLLLTVLLRHDQSKNLDEIQARMKAMDWWERFPGEGVEIVSWTVAMGLGQIVTLRLPPALLPRVNVELERSAWGVFRTECYPTYDFVPVRETIRERVRTGGQ | not soluble
SGNLLKVLTCTDLEQEPNFFLDFENAQPTEAERETWEEVDVVLKDALGILDELQAYKGAGQEIREAIQNPNDEALQDQAWAAVVPLVGKLKKFYEFSQRLEAALHSLLRALTSETYDDPTQHLEREQALAKQFAEILHFTLRFDELKMTNPAIQNDFSYYRRTLSRMRINNVPAEGENEVNNELANRISLFYADATPMLKTLSDGTTKFVSENKNLPIENTTDVLSTMASVCKVMLETPEYRSRFSSEETVSFCLRVMVGVIILYDYVHPVGAFAKSSKIDMKGCIKVLKDQPPNSVEGLLNALRYTTKHLNDESTTKTIKSMLQ | soluble
MPILQELRLGKRISRDISLADLYQEWIELKILPSSRSEETKKKYLLRKNTIERLFGNKKVTQIRASEYQRIMNKYGQTVGRNFLGRLNTGIHQSIQMAIADKVLIDDFTQHVELFSSKLEHHHHHH | soluble
MASTRPDNVLVWMASRGSYVESMPGTILRIKNASKFGENLYGFKDQPGELVEVTWDAMFKLRPTLVEVDFGRNPCDELVKVIEKNYNNEQISHFFEKVKALSLHMTDITSESLLKLMDKFTLLAAFSFSETKFSTPEWATILKRLSELNLRGIDLSDNILSEVQQHIDVSLMKLSGNPGVDVNEFKKGIEFVTVKVLAVQELKFLGETDAEQLLEVLPQSFPRLETLIWDWNVVDPELNFDERTKKVLDQLLFVNKQLNLGSLAVVAYTPNPETKTAIESVARTLKGSIKDVQLHQFATKGLSDGMANFSLIVAGNNEKAMKELMDMYMVDRSTMPPMGKLLRLCEEDIVPIYPAITMDFGGFNKNRIRQLYTESPTD | not soluble
EVKGIGEYKILGESIDDAAGEAFDKTAKLMGLDYPGGPLLSKLAEKGTPGRFKFPRPMTNVPGLDMSFSGLKTFTANTIAANGDDEQTRADIAYAFEEAVCATLAIKCKRALEQTGMKRIVIAGGVSANRRLRAELEKLAKKIGGEVYYPRTEFCTDNGAMIAYAGMQRLKNGEVADMSVEARPRWPIDQLTPIA | not soluble
MGSDKIHHHHHHMTATDSSILNQYLVGKEPFYQPQHDEVALFEAAYRKRLPVMVKGPTGCGKSRFVEFMAWRLGKPLVTVACNEDMTAADLVGRWLLDKDGTRWQDGPLTVAARYGAICYLDEIVEARQDTTVVIHPLTDHRRTLPLDKKGELIRAHPDFQLVISYNPGYQSLMKDLKQSTKQRFTGFEFDYPNAELEAGILVQETGVAPSIAAQLVTVAATARRLKGHGLDEGISTRLLVYAAMLMDDGVAPRAACRMALVQPITDDADIRATLEHAIDMTFA | not soluble
MGSDKIHHHHHHMSEAFLRFDGISVEFPGVKALDEVSFSARAGEVHALMGENGAGKSTLLKVLSGVNRPSSGQLWIDGQAHVFANAREALAHGIAIIYQELTLSPNLSVAENLLLGQLPERRGFIDRRTMKARAREILEELGEGDIDPATKVRELSIGQQQMIEIGRALLRDARIIAFDEPTSSLSVQETRQLKRIVARLRDEGRVVLYVTHRMEEVFEMCDAVTVFRDGRHIRTHETLEGLDHDMLVGEMVGRQIDDVYGFRPRDIGDVLMRIDGLQGRGVNEPVNLEVRRGEVLGLFGLVGAGRSELMRLVCGVEKASRGQVALRGETRVFASPHQAIRAGIAMCPEDRKSQGIFPVASVSDNLNISCRRFFRRWGMFRHAARETDNAKTYIQRLSIKTPSHRTPINTLSGGNQQKVILGRWLAEEIDLFVMDEPTRGIDVGARRDIYALLYDLAEQGKGVIVISSDLAEVSSICDRIGVMRDGVLVDIVPREQATQARLLGLALPA | not soluble
MIQRDIEYSGQYSKDVKLAQKRHKDMNKLKYLMTLLINNTLPLPAVYKDHPLQGSWKGYRDAHVEPDWILIYKLTDKLLRFERTGTHAALFGLEHHHHHH | soluble
MESINYQILKRSEKKLLGLFFDYFQHVIKMHETLNKLLCEADVTKREKLIQAIYEMEDFSNKSEFKLINESIWAISKNSPLTNHLRLTITIIMCSRDLERICDYANNLTKFVKHYQHLDVSIFSKLVNLHKSVLNNLKQTFASLQDKEKPLTIQFENVTKILTEFEQQYRVVLTEYYDKVKDEKLSDRIFLIDLILSVKHIERINDYCYNIIKAFLFVKNPEVFN | soluble
MSNNNKYFTITKKQYKKMRRNKIELLFNVKVLKKKNGRQKFKILHEVENKPKIPIKIIEDQPESPKPLKPPKPPKPPKGPDNPEEPDSPEEPKETDQPGGPDNPNAGNKKMPTPEEYVTRKEFNEFKDSNNQRLTKIENKVDKLEVKVDKLAEIVQTQGEEIKELKVEQKAQSETLQLILKTLQKMNDRLDRMETRLDKIDSPKLEHHHHHH | soluble
MKQFDKHADAYNVVRGKIAYPDSLYRNLAERAPAREAALDIGCGNGVSTVRLQPWFRYVEGSDLGEALIAKARENYPEIRFSVSPAETFAPQRRFDLVTSATSFYWMDRKQVLTRMADWLTPGGLFCAYKYDFPIAYGPLRDFIEHELVNKWAKHRDPRLTRYDDTLEIMGSCPHLRDCRREVFANIIFLSPEEVALFFLSTSYVTRYIEQEGGEDYADRFIAAVREIESAPQVAVNFDIHAFTALNR | not soluble
GKSASGEKEGNENAEEEAAAIEEARREAEERRKEKHRKMEEEREEMRQTIRDKYGLKKKVKEEPEAEADLDEGRVGRKK | soluble
MSLELNFSQTLGNHCLTINETLPANGITAIFGVSGAGKTSLINAISGLTRPQKGRIVLNGRVLNDAEKGICLTPEKRRVGYVFQDARLFPHYKVRGNLRYGMSKSMVDQFDKLVALLGIEPLLDRLPGSLSGGEKQRVAIGRALLTAPELLLLDEPLASLDIPRKRELLPYLQRLTREINIPMLYVSHSLDEILHLADRVMVLENGQVKAFGALEEVWGSSVMNPWLPKEQQSSILKVTVLEHHPHYAMTALALGDQHLWVNKLGEPLQAALRIRIQASDVSLVLQPPQQTSIRNVLRAKVVNSYDDNGQVEVELEVGGKTLWARISPWARDELAIKPGLWLYAQIKSVSITEGHHHHHH | soluble
MGSDKIHHHHHHMLKHADIWAAIDALARDHGLTASALARKAGLDPTTFNKSKRVTREGKPRWPSTESVAKVLEATGATMTAFVGYIEDTAQARQTANTIPLIGFAQAGDCGYFDDAGYPVGGSWDEIPFPEIGDPHAYALEVSGDSMEPLYRDGDVVIVSPAAGVRRGDRVVVRTTEGEVMVKQLVRQTAKRIELASINPAHPGRSLATEEVAWIARILWSSQ | not soluble
MKERKFINEAVKRLLVCEYVVKETENAGFGNMVMKRTPFGTNITLYVNRPGLVIGRRGSKVQQMTDTLEKKYGIETPQIEVKDVKDPDLNPSVIAKKIALSLEKGWSYRKAGNTSLNRTIQAGAKGVLIKISGKISGERARYQKFIYGNVKYSGEPGSKGMITGFSTAKLKVGILGVTVKILNPEYKLPDVFSIENITGGEEVGTESKADQTDVEGRETGNAEES | not soluble
